{"source": "the supplement of paper PMC10567573", "parents": {"B1": {"name": "SPRY1 (parent)", "chain": "WIHRPGCRCKNSNTVYCKLESCPS"}, "B2": {"name": "GAGE1 (parent)", "chain": "QPPEMIGPMRPEQFSDEVEPATPE"}}, "data": [{"variants_of": "B1", "experiment": "protein stability index of a GFP-peptide fusion (GPS, HEK-293T) (PSI 1-6); higher = more stable", "conditions": "c terminus: a fixed tail appended", "values": [{"variant": "P23F", "protein stability index": 3.63}, {"variant": "P23A", "protein stability index": 2.29}, {"variant": "P23V", "protein stability index": 1.47}, {"variant": "P23K", "protein stability index": 2.15}, {"variant": "P23Y", "protein stability index": 1.99}, {"variant": "P23W", "protein stability index": 2.35}, {"variant": "P23M", "protein stability index": 1.56}, {"variant": "P23S", "protein stability index": 2.9}, {"variant": "P23G", "protein stability index": 2.84}, {"variant": "P23L", "protein stability index": 1.71}, {"variant": "P23I", "protein stability index": 1.32}, {"variant": "P23H", "protein stability index": 2.23}, {"variant": "P23D", "protein stability index": 3.04}, {"variant": "P23N", "protein stability index": 2.43}, {"variant": "P23C", "protein stability index": 2.43}, {"variant": "P23T", "protein stability index": 1.83}, {"variant": "P23E", "protein stability index": 2.03}, {"variant": "P23R", "protein stability index": 1.93}, {"variant": "P23Q", "protein stability index": 2.41}, {"variant": "C22V", "protein stability index": 2.52}, {"variant": "C22H", "protein stability index": 2.01}, {"variant": "C22P", "protein stability index": 2.68}, {"variant": "C22E", "protein stability index": 2.02}, {"variant": "C22D", "protein stability index": 1.98}, {"variant": "C22Q", "protein stability index": 1.98}, {"variant": "C22T", "protein stability index": 2.07}, {"variant": "C22A", "protein stability index": 3.24}, {"variant": "C22F", "protein stability index": 1.8}, {"variant": "C22I", "protein stability index": 1.84}, {"variant": "C22Y", "protein stability index": 2.44}, {"variant": "C22W", "protein stability index": 1.83}, {"variant": "C22G", "protein stability index": 2.29}, {"variant": "C22R", "protein stability index": 3.31}, {"variant": "C22S", "protein stability index": 2.26}, {"variant": "C22K", "protein stability index": 1.88}, {"variant": "C22L", "protein stability index": 2.03}, {"variant": "C22N", "protein stability index": 1.9}, {"variant": "C22M", "protein stability index": 1.53}, {"variant": "S21G", "protein stability index": 2.22}, {"variant": "S21H", "protein stability index": 2}, {"variant": "S21K", "protein stability index": 1.79}, {"variant": "S21V", "protein stability index": 2.09}, {"variant": "S21P", "protein stability index": 2.74}, {"variant": "S21E", "protein stability index": 2.4}, {"variant": "S21T", "protein stability index": 2.17}, {"variant": "S21L", "protein stability index": 1.7}, {"variant": "S21Y", "protein stability index": 2.04}, {"variant": "S21R", "protein stability index": 2.17}, {"variant": "S21N", "protein stability index": 2.63}, {"variant": "S21D", "protein stability index": 2.13}, {"variant": "S21W", "protein stability index": 2.75}, {"variant": "S21I", "protein stability index": 2.67}, {"variant": "S21M", "protein stability index": 1.99}, {"variant": "S21F", "protein stability index": 2.56}, {"variant": "S21Q", "protein stability index": 2.14}, {"variant": "S24G", "protein stability index": 2.1}, {"variant": "S24C", "protein stability index": 2.5}, {"variant": "S24V", "protein stability index": 2.5}, {"variant": "S24D", "protein stability index": 3.1}, {"variant": "S24F", "protein stability index": 2.09}, {"variant": "S24K", "protein stability index": 2.05}, {"variant": "S24W", "protein stability index": 3.62}, {"variant": "S24I", "protein stability index": 2.29}, {"variant": "S24E", "protein stability index": 2.52}, {"variant": "S24P", "protein stability index": 2.16}, {"variant": "S24H", "protein stability index": 2.63}, {"variant": "S24R", "protein stability index": 1.61}, {"variant": "S24L", "protein stability index": 2}, {"variant": "S24A", "protein stability index": 2.25}, {"variant": "S24N", "protein stability index": 2.1}, {"variant": "S24T", "protein stability index": 2.1}, {"variant": "S24Q", "protein stability index": 2.13}, {"variant": "S24M", "protein stability index": 2.37}, {"variant": "S24Y", "protein stability index": 3.13}]}, {"variants_of": "B2", "experiment": "protein stability index of a GFP-peptide fusion (GPS, HEK-293T) (PSI 1-6); higher = more stable", "conditions": "c terminus: a fixed tail appended", "values": [{"variant": "E4D", "protein stability index": 5.65}, {"variant": "E4I", "protein stability index": 5.52}, {"variant": "E4V", "protein stability index": 5.41}, {"variant": "E4G", "protein stability index": 5.72}, {"variant": "E4A", "protein stability index": 5.75}, {"variant": "E4L", "protein stability index": 5.54}, {"variant": "E4S", "protein stability index": 5.2}, {"variant": "E4N", "protein stability index": 5.48}, {"variant": "E4H", "protein stability index": 5.6}, {"variant": "E4F", "protein stability index": 5.62}, {"variant": "E4R", "protein stability index": 5.74}, {"variant": "E4C", "protein stability index": 5.58}, {"variant": "E4Q", "protein stability index": 5.68}, {"variant": "E4W", "protein stability index": 5.61}, {"variant": "E4T", "protein stability index": 5.56}, {"variant": "E4M", "protein stability index": 5.65}, {"variant": "E4K", "protein stability index": 5.46}, {"variant": "E4Y", "protein stability index": 5.75}, {"variant": "E4P", "protein stability index": 5.56}, {"variant": "Q1T", "protein stability index": 4.94}, {"variant": "Q1S", "protein stability index": 4.89}, {"variant": "Q1D", "protein stability index": 5.42}, {"variant": "Q1N", "protein stability index": 5.06}, {"variant": "Q1M", "protein stability index": 5.27}, {"variant": "Q1H", "protein stability index": 5.06}, {"variant": "Q1F", "protein stability index": 4.95}, {"variant": "Q1I", "protein stability index": 4.78}, {"variant": "Q1C", "protein stability index": 5.33}, {"variant": "Q1A", "protein stability index": 4.84}, {"variant": "Q1G", "protein stability index": 4.64}, {"variant": "Q1K", "protein stability index": 4.57}, {"variant": "Q1R", "protein stability index": 5.04}, {"variant": "Q1W", "protein stability index": 5.49}, {"variant": "Q1E", "protein stability index": 5.01}, {"variant": "Q1Y", "protein stability index": 4.8}, {"variant": "Q1L", "protein stability index": 5.07}, {"variant": "Q1V", "protein stability index": 4.68}, {"variant": "P3K", "protein stability index": 5.64}, {"variant": "P3W", "protein stability index": 5.23}, {"variant": "P3N", "protein stability index": 5.4}, {"variant": "P3L", "protein stability index": 4.76}, {"variant": "P3F", "protein stability index": 5.22}, {"variant": "P3V", "protein stability index": 4.83}, {"variant": "P3G", "protein stability index": 5.17}, {"variant": "P3I", "protein stability index": 4.9}, {"variant": "P3Q", "protein stability index": 5.51}, {"variant": "P3C", "protein stability index": 5.44}, {"variant": "P3R", "protein stability index": 5.71}, {"variant": "P3Y", "protein stability index": 5.32}, {"variant": "P3S", "protein stability index": 5.26}, {"variant": "P3T", "protein stability index": 5.57}, {"variant": "P3H", "protein stability index": 5.52}, {"variant": "P3D", "protein stability index": 5.75}, {"variant": "P3E", "protein stability index": 5.63}, {"variant": "P3A", "protein stability index": 5.73}, {"variant": "P3M", "protein stability index": 5.76}, {"variant": "P2C", "protein stability index": 5.32}, {"variant": "P2E", "protein stability index": 4.88}, {"variant": "P2F", "protein stability index": 5.11}, {"variant": "P2H", "protein stability index": 5.25}, {"variant": "P2K", "protein stability index": 4.99}, {"variant": "P2R", "protein stability index": 4.8}, {"variant": "P2G", "protein stability index": 5.6}, {"variant": "P2I", "protein stability index": 4.28}, {"variant": "P2M", "protein stability index": 4.59}, {"variant": "P2T", "protein stability index": 5.09}, {"variant": "P2A", "protein stability index": 4.8}, {"variant": "P2L", "protein stability index": 4.88}, {"variant": "P2V", "protein stability index": 4.4}, {"variant": "P2W", "protein stability index": 4.48}, {"variant": "P2N", "protein stability index": 5.34}, {"variant": "P2Y", "protein stability index": 4.8}, {"variant": "P2S", "protein stability index": 4.65}, {"variant": "P2D", "protein stability index": 4.87}, {"variant": "P2Q", "protein stability index": 4.64}, {"variant": "M5A", "protein stability index": 5.68}, {"variant": "M5V", "protein stability index": 4.27}, {"variant": "M5L", "protein stability index": 4.55}, {"variant": "M5C", "protein stability index": 4.73}, {"variant": "M5W", "protein stability index": 5.54}, {"variant": "M5F", "protein stability index": 5.32}, {"variant": "M5P", "protein stability index": 5.9}, {"variant": "M5D", "protein stability index": 5.02}, {"variant": "M5R", "protein stability index": 5.81}, {"variant": "M5Q", "protein stability index": 5.25}, {"variant": "M5E", "protein stability index": 5.15}, {"variant": "M5T", "protein stability index": 5.19}, {"variant": "M5H", "protein stability index": 5.5}, {"variant": "M5I", "protein stability index": 4.57}, {"variant": "M5K", "protein stability index": 5.27}, {"variant": "M5S", "protein stability index": 3.55}, {"variant": "M5G", "protein stability index": 5.45}, {"variant": "M5N", "protein stability index": 5}]}]}
